From the supplement of paper PMC7125110
± gives the standard error. Fewer inactive variants are shown than the library holds.

B1: glmS ribozyme (parent)
chain: AUAAAAGCGCCAGAACUACAGAAAUGUAGUUGACGAGGAGGAGGUUUAUCGAAUUUUCGGCGGAUGCCUCCAAA

Legend:
Conditions in all cases: with glucosamine-6-phosphate
glucosamine-6-phosphate [1] = variants of: B1; assay: self-cleavage kobs at 40 uM GlcN6P; higher = faster cleavage; RNA array
Procedure, shortened: (§1)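 Glucosamine-6-phosphate (40 μM to 10 mM) in HEPES/KCl/Mg(OAc)2 buffer was flowed over sequenced MiSeq chips, and tiles were imaged over ~14 h. Barcoded ribozyme variants there had been transcribed in situ by E. coli RNA polymerase and were tracked through a hybridised Cy3 probe at 37 °C. One- or two-exponential decay fits to per-tile medians, normalised to baseline and to non-cleaving reference variants, gave kobs. kcat and KM came from weighted Michaelis–Menten fits across concentrations.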

glucosamine-6-phosphate [2] = variants of: B1; assay: self-cleavage kobs at 640 uM GlcN6P; higher = faster cleavage; RNA array
Procedure, shortened: as §1

glucosamine-6-phosphate [3] = variants of: B1; assay: self-cleavage kobs at 10000 uM GlcN6P; higher = faster cleavage; RNA array
Procedure, shortened: as §1

glucosamine-6-phosphate [4] = variants of: B1; assay: self-cleavage kobs at 160 uM GlcN6P; higher = faster cleavage; RNA array
Procedure, shortened: as §1

glucosamine-6-phosphate [5] = variants of: B1; assay: self-cleavage kobs at 2500 uM GlcN6P; higher = faster cleavage; RNA array
Procedure, shortened: as §1

Variant	self-cleavage kobs at 40 uM GlcN6P (glucosamine-6-phosphate [1])	self-cleavage kobs at 640 uM GlcN6P (glucosamine-6-phosphate [2])	self-cleavage kobs at 10000 uM GlcN6P (glucosamine-6-phosphate [3])	self-cleavage kobs at 160 uM GlcN6P (glucosamine-6-phosphate [4])	self-cleavage kobs at 2500 uM GlcN6P (glucosamine-6-phosphate [5])
C10G A36G	< 1e-05 s⁻¹	< 1e-05 s⁻¹	< 1e-05 s⁻¹	–	–
C10A C34G A42G C70G	< 1e-05 s⁻¹	–	< 1e-05 s⁻¹	–	–
C10G A14C C70U	< 1e-05 s⁻¹	–	–	–	–
C10U A14C A36G G41A	< 1e-05 s⁻¹	< 1e-05 s⁻¹	–	< 1e-05 s⁻¹	< 1e-05 s⁻¹
C10G A12U U30G	< 1e-05 s⁻¹	–	–	–	–
C10U G43U	< 1e-05 s⁻¹	< 1e-05 s⁻¹	< 1e-05 s⁻¹	< 1e-05 s⁻¹	< 1e-05 s⁻¹
C10U A12G G13C	< 1e-05 s⁻¹	–	< 1e-05 s⁻¹	–	–
C11U G29U A39U A64U	< 1e-05 s⁻¹	–	–	–	–
C11G G62C A64G C68G	< 1e-05 s⁻¹	–	< 1e-05 s⁻¹	–	–
G9U A52G	< 1e-05 s⁻¹	–	< 1e-05 s⁻¹	< 1e-05 s⁻¹	–
C10U G32U A64C	< 1e-05 s⁻¹	–	< 1e-05 s⁻¹	–	–
C11G G38C	< 1e-05 s⁻¹	< 1e-05 s⁻¹	–	–	< 1e-05 s⁻¹
G9U G29A U30A C67U	< 1e-05 s⁻¹	–	–	–	–
C11U G60C	< 1e-05 s⁻¹	–	< 1e-05 s⁻¹	< 1e-05 s⁻¹	–
C11G G44U A48C C50A G59U G62C	< 1e-05 s⁻¹	–	< 1e-05 s⁻¹	–	–
C10G G40A	< 1e-05 s⁻¹	< 1e-05 s⁻¹	< 1e-05 s⁻¹	–	< 1e-05 s⁻¹
C10G U30A	< 1e-05 s⁻¹	< 1e-05 s⁻¹	< 1e-05 s⁻¹	< 1e-05 s⁻¹	< 1e-05 s⁻¹
C10G U69A	< 1e-05 s⁻¹	–	–	–	–
C11G C50A A52U G63A	< 1e-05 s⁻¹	–	< 1e-05 s⁻¹	–	–
C10A U31A C58G C67A	4.23e-05 ± 1.8e-05 s⁻¹	0.00013 ± 3.4e-05 s⁻¹	3.62e-05 ± 1.5e-05 s⁻¹	–	0.000317 ± 0.00016 s⁻¹
C11U C61G U69C	9.12e-05 ± 2.3e-05 s⁻¹	–	4.04e-05 ± 1.7e-05 s⁻¹	–	–
C10U C11A A39C A42U U47C G66C	< 1e-05 s⁻¹	–	–	–	–
C11G G60U	< 1e-05 s⁻¹	< 1e-05 s⁻¹	< 1e-05 s⁻¹	< 1e-05 s⁻¹	–

Variant	self-cleavage kobs at 40 uM GlcN6P (glucosamine-6-phosphate [1])	self-cleavage kobs at 640 uM GlcN6P (glucosamine-6-phosphate [2])	self-cleavage kobs at 10000 uM GlcN6P (glucosamine-6-phosphate [3])	self-cleavage kobs at 160 uM GlcN6P (glucosamine-6-phosphate [4])	self-cleavage kobs at 2500 uM GlcN6P (glucosamine-6-phosphate [5])
C10A U49A	< 1e-05 s⁻¹	< 1e-05 s⁻¹	–	< 1e-05 s⁻¹	–
G9U A36U	< 1e-05 s⁻¹	< 1e-05 s⁻¹	< 1e-05 s⁻¹	–	–
G9U A36C	< 1e-05 s⁻¹	< 1e-05 s⁻¹	< 1e-05 s⁻¹	–	< 1e-05 s⁻¹
C11G C58U G59U	< 1e-05 s⁻¹	–	< 1e-05 s⁻¹	–	–
C10G G43A A48G U54G C58A A64U	< 1e-05 s⁻¹	< 1e-05 s⁻¹	< 1e-05 s⁻¹	–	< 1e-05 s⁻¹
C10G G32U A53G C58G G60C	< 1e-05 s⁻¹	–	0.000266 ± 4.4e-05 s⁻¹	–	–
C11U C50G	0.000107 ± 2.2e-05 s⁻¹	0.000371 ± 9e-05 s⁻¹	–	0.000271 ± 6.5e-05 s⁻¹	0.000104 ± 2.1e-05 s⁻¹
C11A A14U A15G G29A G44U C61A	< 1e-05 s⁻¹	< 1e-05 s⁻¹	< 1e-05 s⁻¹	–	< 1e-05 s⁻¹
C10U G13U	< 1e-05 s⁻¹	< 1e-05 s⁻¹	< 1e-05 s⁻¹	< 1e-05 s⁻¹	< 1e-05 s⁻¹
C11U G13C C16A U49A	< 1e-05 s⁻¹	< 1e-05 s⁻¹	–	< 1e-05 s⁻¹	–
C10G G43U U65A	< 1e-05 s⁻¹	–	–	–	< 1e-05 s⁻¹
C11G A39G G63U	< 1e-05 s⁻¹	–	< 1e-05 s⁻¹	–	< 1e-05 s⁻¹
G9U U45G A53G G62U	< 1e-05 s⁻¹	–	< 1e-05 s⁻¹	–	–
G9U G40C	< 1e-05 s⁻¹	< 1e-05 s⁻¹	< 1e-05 s⁻¹	< 1e-05 s⁻¹	–
C11G C58A A64G	< 1e-05 s⁻¹	–	–	–	–
C10G G13A	< 1e-05 s⁻¹	< 1e-05 s⁻¹	–	< 1e-05 s⁻¹	–
G9U A39U	< 1e-05 s⁻¹	–	–	–	–
C11G C34A	< 1e-05 s⁻¹	–	< 1e-05 s⁻¹	< 1e-05 s⁻¹	< 1e-05 s⁻¹
C11A G51U A52G U57A G66C C70A	5.04e-05 ± 1.9e-05 s⁻¹	–	5e-05 ± 1.4e-05 s⁻¹	–	–
C11U G40C U46G	< 1e-05 s⁻¹	–	–	–	–
C10A A36U C68G	8.85e-05 ± 2.9e-05 s⁻¹	–	6.62e-05 ± 2.1e-05 s⁻¹	–	–
C11G A48G	< 1e-05 s⁻¹	< 1e-05 s⁻¹	< 1e-05 s⁻¹	< 1e-05 s⁻¹	< 1e-05 s⁻¹
C11U A12U C34A G66C	< 1e-05 s⁻¹	< 1e-05 s⁻¹	< 1e-05 s⁻¹	–	< 1e-05 s⁻¹
